Measurements published in patent US20250171542A1 (ADEPT THERAPEUTICS, published 2025).

What was measured:
[1] = molecular target: T1, human PD-L1-mFc fusion protein (Sino Biological, Cat #10084-H05H) (human, UniProt Q9NZQ7 19-239); assay: competition ELISA, coated human PD-L1-mFc, competitor human PD-1-His-hFc-Biotin
T1 construct: Bought protein; also called human PD-L1 mouse Fc fusion protein; not shown: mouse Fc
Procedure: Briefly, microplates were precoated with […] of human PD-L1-mFc fusion protein (Sino Biological, Cat #10084-H05H) diluted in 1×PBS (GIBCO) and incubated overnight at 4° C.; Plates were washed four times with 300 μl/well washing buffer (1×PBST, diluted from 20×PBST (Thermo Scientific) with distilled water)) and then blocked with 300 μl/well of blocking buffer (1×PBST/3% BSA) for 2 hours at RT on shaker (100 rpm). […] Plates were washed and added with 100 μl/well TMB substrate for color development at room temperature in dark for up to 10 minutes. After addition of 50 μl/well of stop solution (1N H₂SO₄), plates were read at 450 nm on a plate reader (SpectraMax M5).

[2] = molecular target: T2, human PD-L1 expressed on cell surface (human, UniProt Q9NZQ7 19-290); assay: cell-based or functional assay
[3] = molecular target: T3, human PD-L1-His (Sino Biological, Cat #10084-H08H) (human, UniProt Q9NZQ7 19-238); assay: ELISA, coated human PD-L1-His
T3 construct: Bought protein; also called human PD-L1 ECD-His; recombinant human PD-L1-His protein; not shown: His tag
Procedure: (§1) Briefly, Maxisorp plates (Nunc) were coated with 100 ul/well of 0.5 μg/ml human PD-L1-His (Sino Biological, Cat #10084-H08H) or cynomolgus PD-L1-His (Sino Biological, Cat. 90251-C08H) protein diluted in 1×PBS (GIBCO) overnight at 4° C. Plates were washed three times with 300 μl/well washing buffer (1×PBST, diluted from 20×PBST (Thermo Scientific) with distilled water)) and then blocked with 300 μl/well of blocking buffer (1×PBST/I % BSA) for 2 hours at RT on shaker (100 rpm). Plates were washed and added with 100 μl/well of testing antibodies, which were serial diluted with assay buffer (PBST/1% BSA). The antibodies were incubated at room temperature for 2 hours on plate shaker at 100 rpm. Plates were washed. One hundred microliter of horseradish peroxidase (HRP) conjugated detection antibody was added into each well and incubated at room temperature for 1 hour on plate shaker at 100 rpm. Plates were washed and added with 100 μl/well TMB substrate for color development at room temperature in dark for up to 10 minutes. After addition of 50 μl/well of stop solution (1N H₂SO₄), plates were read at 450 nm on a plate reader (SpectraMax M5).
(§2) Anti-HEL isotype control (Biolntron) was used as negative control.

[4] = molecular target: T2, human PD-L1 expressed on cell surface; assay: cell-based or functional assay; remark: listed apart in the source
[5] = molecular target: T3, human PD-L1-His (Sino Biological, Cat …); assay: competition ELISA (epitope binning): coated human PD-L1-His, antibody pre-incubated, then biotinylated Avelumab (competitor), detection with HRP-avidin
[6] = molecular target: T4, cynomolgus PD-L1-His (Sino Biological, Cat. 90251-C08H) (cynomolgus, UniProt Q9NZQ7 19-238 (human entry)); assay: ELISA, coated cyno PD-L1-His
T4 construct: Bought protein; also called Cyno PD-L1; Cynomolgus PD-L1 ECD-His; not shown: His tag
Procedure: as §1, §2

[7] = molecular target: T2, human PD-L1 expressed on cell surface; assay: flow cytometry, MDA-MB-231-GFP cells
Procedure: Cells were then resuspended in FACS buffer (1×DPBS/1% FBS) at 10⁶/ml concentration. One hundred microliter (100 μl) of cells were aliquoted into a single well in 96 well plates. The antibodies to be tested were serially diluted at 1:3 fold starting at 15 ug/mL and were then added into each well. The antibodies were mixed with cells and the mixtures were incubated on ice for 1 hour. […] After washing with FACS buffer, stained cells were resuspended at diluted […] (Biolegend, Cat #420404, used at 1:100 dilution) and analyzed on Guava 11HT (Luminex). Data was analyzed using Flowjo software.
as §2

[8] = molecular target: T2, human PD-L1 expressed on cell surface; assay: cell-based or functional assay; remark: listed apart in the source

T4 sequence (Q9NZQ7 other isoform, or with tags, fused parts or gaps C08H C08H limits assumed): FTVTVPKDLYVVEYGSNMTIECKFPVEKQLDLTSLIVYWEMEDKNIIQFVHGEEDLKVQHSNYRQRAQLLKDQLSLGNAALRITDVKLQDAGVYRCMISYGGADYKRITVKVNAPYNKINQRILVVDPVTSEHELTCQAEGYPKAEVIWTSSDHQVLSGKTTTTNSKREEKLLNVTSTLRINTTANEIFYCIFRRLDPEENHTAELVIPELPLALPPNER
T1 sequence (Q9NZQ7 19-239 limits assumed): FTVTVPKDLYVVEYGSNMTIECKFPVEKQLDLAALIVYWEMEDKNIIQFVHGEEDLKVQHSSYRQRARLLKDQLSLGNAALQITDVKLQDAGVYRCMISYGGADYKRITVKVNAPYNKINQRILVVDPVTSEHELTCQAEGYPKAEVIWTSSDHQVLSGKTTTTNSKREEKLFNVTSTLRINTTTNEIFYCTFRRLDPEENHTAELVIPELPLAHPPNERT
T3 sequence (Q9NZQ7 19-238): as the sequence (Q9NZQ7 other isoform, or with tags, fused parts or gaps C08H C08H limits assumed) above, with T33A, S34A, N62S, Q68R, R82Q, L173F, A185T, I192T, L215H counted along it
T2 sequence (Q9NZQ7 19-290 limits assumed): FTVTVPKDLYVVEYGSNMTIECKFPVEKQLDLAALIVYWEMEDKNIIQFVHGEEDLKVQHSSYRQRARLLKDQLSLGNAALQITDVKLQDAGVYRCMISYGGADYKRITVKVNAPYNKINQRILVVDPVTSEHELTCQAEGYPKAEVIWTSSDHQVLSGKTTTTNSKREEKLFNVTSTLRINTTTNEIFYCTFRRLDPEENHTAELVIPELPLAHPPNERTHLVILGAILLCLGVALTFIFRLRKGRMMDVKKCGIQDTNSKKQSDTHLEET

B1: 56H3 (antibody, human IgG1, V domains shown)
VH: QEQLVESGGGLVQPEGSLTLTCTASEFSFSNNYYMSWVRQAPGKGLEWLGSIGIGSGITDYASWAKGRFTISKASSTTVTLQMTTLTAADTAIYFCARWTSGGGGFGLWGPGTLVTVSS
VL: QVLTQTSSPVSAAVGGTVTINCQSSQTIYSDYLFWYQQKPGQPPKLLIYQTSTLASGVPSRFSGSGSGTQFTLTISGVQCDDAATYYCQGYYSGYIWTFGGGTEVVVN
- IC50 [1]: 2.1 nM
- IC50 (nM), Promega PD-1/PD-L1 blockade reporter assay [2]: 0.36 nM
- EC50 [3]: 0.0172 nM
- Internalization (%), FACS, 0.25 µg/ml, 2 h [4]: 16.3%
- Internalization (%), FACS, 0.25 µg/ml, 4 h [4]: 16%
- Internalization (%), FACS, 0.5 µg/ml, 2 h [4]: 16.1%
- Internalization (%), FACS, 0.5 µg/ml, 4 h [4]: 19%
- Internalization (%), FACS, 1 µg/ml, 2 h [4]: 15.3%
- Internalization (%), FACS, 1 µg/ml, 4 h [4]: 9.1%
- Internalization (%), FACS, 2 µg/ml, 2 h [4]: 6.5%
- Internalization (%), FACS, 2 µg/ml, 4 h [4]: 4.8%
- IC50 (read off the curve) [5]: ~0.1 µg/mL
- EC50 [6]: 0.0076 nM
- EC50 [7]: 0.19 nM

B2: 74A9 (antibody, human IgG1, V domains shown)
VH: QSVEESGGRLVTPGTPLTLTCAVSGFSLSTYALGWVRQAPGKGLEWIGSISIGGATYYASWAKGRFTISKTSTTVDLKIASPTTEDTATYFCARNVDSIYLDAFHTWGPGTLVTVSL
VL: DIVMTQTPASVEAAVGGTVTIKCQASQNIYNNLAWYQQKPGQPPKLLIYRASTLASGVPSRFKGSGSGTEYTLTISDLECDDAATYYCQTYYLTTTTNAFGGGTEVVVK
- IC50 [1]: 2.3 nM
- IC50 (nM), Promega PD-1/PD-L1 blockade reporter assay, another assay [8]: 0.46 nM
- IC50 (nM), Promega PD-1/PD-L1 blockade reporter assay [2]: 0.29 nM
- EC50 [3]: 0.0229 nM
- Internalization (%), FACS, 0.25 µg/ml, 2 h [4]: 11.5%
- Internalization (%), FACS, 0.25 µg/ml, 4 h [4]: 11%
- Internalization (%), FACS, 0.5 µg/ml, 2 h [4]: 13.2%
- Internalization (%), FACS, 0.5 µg/ml, 4 h [4]: 12%
- Internalization (%), FACS, 1 µg/ml, 2 h [4]: 17.7%
- Internalization (%), FACS, 1 µg/ml, 4 h [4]: 9.2%
- Internalization (%), FACS, 2 µg/ml, 2 h [4]: 13.9%
- Internalization (%), FACS, 2 µg/ml, 4 h [4]: 11.7%
- EC50 [6]: 0.0198 nM
- EC50 [7]: 0.34 nM

B3: 28B3 (antibody, human IgG1, V domains shown)
VH: QSVEESGGRLVTPGTPLTLSCTASGFSLSSYYMIWVRQAPGKGLEYIGYVYTGSGNTWYASWAKGRFAISKASTTVDLMITSPTTEDTATYFCASGADGVYDWGWDIWGPGTLVTVSL
VL: DIVMTQTPASVEAAVGDTVTIKCQASQSIYSLLAWYQQKPGQRPKLLIAGASNLESGVPSRFSGSGSGTEYTLTISALECADAATYYCQNNYDSGRIYGLAFGGGTEVVVK
- IC50 [1]: 1.5 nM
- IC50 (nM), Promega PD-1/PD-L1 blockade reporter assay, another assay [8]: 0.33 nM
- IC50 (nM), Promega PD-1/PD-L1 blockade reporter assay [2]: 0.24 nM
- EC50 [3]: 0.0159 nM
- Internalization (%), FACS, 0.25 µg/ml, 2 h [4]: 20.4%
- Internalization (%), FACS, 0.25 µg/ml, 4 h [4]: 17.6%
- Internalization (%), FACS, 0.5 µg/ml, 2 h [4]: 12%
- Internalization (%), FACS, 0.5 µg/ml, 4 h [4]: 19.9%
- Internalization (%), FACS, 1 µg/ml, 2 h [4]: 15.3%
- Internalization (%), FACS, 1 µg/ml, 4 h [4]: 15.5%
- Internalization (%), FACS, 2 µg/ml, 2 h [4]: 8.3%
- Internalization (%), FACS, 2 µg/ml, 4 h [4]: 6%
- EC50 [6]: 0.0177 nM
- EC50 [7]: 0.1 nM
